Measured values: patent US20040229288A1 (AJINOMOTO, published 2004)

What was measured:
[1] = target: GPIb-mIgG2aFc chimeric protein (N-terminus side region of human glycoprotein Ib, amino acid numbers 1-319, fused to the Fc region of mouse immunoglobulin γ2a) (human (glycoprotein Ib part); mouse (immunoglobulin γ2a Fc part)); experiment: Eu-labelled vWF on captured chimeric protein, ristocetin 0.5 mg/ml, competitor recombinant AS1051 at 20 µg/ml
[2] = target: GPIb-mIgG2aFc chimeric protein (N-terminus side region of human glycoprotein Ib, amino acid numbers 1-319, fused to the Fc region of mouse immunoglobulin γ2a) (human (glycoprotein Ib part); mouse (immunoglobulin γ2a Fc part)); experiment: Eu-labelled vWF on captured chimeric protein, ristocetin 0 mg/ml, competitor recombinant AS1051 at 20 µg/ml
[3] = target: GPIb-mIgG2aFc chimeric protein (N-terminus side region of human glycoprotein Ib, amino acid numbers 1-319, fused to the Fc region of mouse immunoglobulin γ2a) (human (glycoprotein Ib part); mouse (immunoglobulin γ2a Fc part)); experiment: Eu-labelled vWF on captured chimeric protein, ristocetin 1 mg/ml, competitor recombinant AS1051 at 20 µg/ml
[4] = target: GPIb-mIgG2aFc chimeric protein (N-terminus side region of human glycoprotein Ib, amino acid numbers 1-319, fused to the Fc region of mouse immunoglobulin γ2a) (human (glycoprotein Ib part); mouse (immunoglobulin γ2a Fc part)); experiment: Eu-labelled vWF (500 ng/ml) on captured chimeric protein, ristocetin 0 mg/ml, no inhibitor
[5] = target: GPIb-mIgG2aFc chimeric protein (N-terminus side region of human glycoprotein Ib, amino acid numbers 1-319, fused to the Fc region of mouse immunoglobulin γ2a) (human (glycoprotein Ib part); mouse (immunoglobulin γ2a Fc part)); experiment: Eu-labelled vWF (500 ng/ml) on captured chimeric protein, ristocetin 2 mg/ml, no inhibitor
[6] = target: GPIb-mIgG2aFc chimeric protein (N-terminus side region of human glycoprotein Ib, amino acid numbers 1-319, fused to the Fc region of mouse immunoglobulin γ2a) (human (glycoprotein Ib part); mouse (immunoglobulin γ2a Fc part)); experiment: Eu-labelled vWF on captured chimeric protein, ristocetin 0.25 mg/ml, competitor recombinant AS1051 at 20 µg/ml
[7] = target: GPIb-mIgG2aFc chimeric protein (N-terminus side region of human glycoprotein Ib, amino acid numbers 1-319, fused to the Fc region of mouse immunoglobulin γ2a) (human (glycoprotein Ib part); mouse (immunoglobulin γ2a Fc part)); experiment: Eu-labelled vWF (500 ng/ml) on captured chimeric protein, ristocetin 0.25 mg/ml, no inhibitor
[8] = target: GPIb-mIgG2aFc chimeric protein (N-terminus side region of human glycoprotein Ib, amino acid numbers 1-319, fused to the Fc region of mouse immunoglobulin γ2a) (human (glycoprotein Ib part); mouse (immunoglobulin γ2a Fc part)); experiment: Eu-labelled vWF with botrocetin on captured chimeric protein, in the presence of the competitor AJvW-2 (as the table names it)
[9] = target: GPIb-mIgG2aFc chimeric protein (N-terminus side region of human glycoprotein Ib, amino acid numbers 1-319, fused to the Fc region of mouse immunoglobulin γ2a) (human (glycoprotein Ib part); mouse (immunoglobulin γ2a Fc part)); experiment: Eu-labelled vWF (500 ng/ml) on captured chimeric protein, ristocetin 1 mg/ml, no inhibitor
[10] = target: GPIb-mIgG2aFc chimeric protein (N-terminus side region of human glycoprotein Ib, amino acid numbers 1-319, fused to the Fc region of mouse immunoglobulin γ2a) (human (glycoprotein Ib part); mouse (immunoglobulin γ2a Fc part)); experiment: Eu-labelled vWF (500 ng/ml) on captured chimeric protein, ristocetin 0.5 mg/ml, no inhibitor
[11] = target: GPIb-mIgG2aFc chimeric protein (N-terminus side region of human glycoprotein Ib, amino acid numbers 1-319, fused to the Fc region of mouse immunoglobulin γ2a) (human (glycoprotein Ib part); mouse (immunoglobulin γ2a Fc part)); experiment: Eu-labelled vWF on captured chimeric protein, ristocetin 2 mg/ml, competitor recombinant AS1051 at 20 µg/ml
[12] = target: GPIb-mIgG2aFc chimeric protein (N-terminus side region of human glycoprotein Ib, amino acid numbers 1-319, fused to the Fc region of mouse immunoglobulin γ2a) (human (glycoprotein Ib part); mouse (immunoglobulin γ2a Fc part)); experiment: Eu-labelled vWF (500 ng/ml solution) with botrocetin (500 ng/ml) on chimeric protein captured by anti-mouse immunoglobulin antibodies, no inhibitor
[13] = target: T1, human von Willebrand factor (human, UniProt P04275 764-2813); experiment: ELISA: GPIb-mIgGlFc culture supernatant on vWF immobilised with botrocetin, detected with biotinylated anti-mouse IgG-Fc antibodies
T1 construct: also called vWF; von Willebrand factor labeled with europium (Eu)
Experimental: Immobilization of a mixed solution of von Willebrand factor and botrocetin on a 96-well multititer plate was attained as follows. First, a physiological saline solution of von Willebrand factor (250 μg/ml) and a physiological saline solution of botrocetin (500 μg/ml), which were prepared in a conventional manner, were appropriately diluted, and mixed at the concentration ratios shown in FIG. 2. Then, 50 μl of each mixture was added to each well of a 96-well multititer plate (Maxisorp, produced by Nunc). The plate was left stand overnight at 4° C., and then each well was washed once with a physiological Tris buffer (150 μl, 20 mM Tris-HCl (pH 7.4), 0.15 M sodium chloride; Tris buffered saline, referred to as “TBS” hereinafter). Then, each well was added with 100 μl of TBS containing 10% BSA (bovine serum albumin), left stand for about 3 hours, and washed 3 times with TBS to obtain a von Willebrand factor immobilized plate. […]

[14] = target: T1, human von Willebrand factor; experiment: Ratio of control count to count with AS1051; Eu-labelled chimeric protein on vWF immobilised with botrocetin
Experimental: The binding of the europium (Eu) labeled chimeric protein and the von Willebrand factor immobilized in the presence of botrocetin prepared as described above was detected as follows. According to the method mentioned in Example 4 <1>, a mixed solution (TBS) containing 2.5 μg/ml of von Willebrand factor and 2.5 μg/ml of botrocetin was added to each well of a 96-well multititer plate (microtitration plate DELFIA, 1244-550, produced by Wallac), immobilized overnight and subjected to washing, blocking and washing to prepare a von Willebrand factor immobilized plate.
Each well of the above plate was added with 25 μl of an assay buffer containing 0.5% BSA (Assay Buffer, Wallac DELFIA 1244-106, produced by Wallac, Composition: 0.5% BSA, 0.05% bovine γ-globulin, 0.01% Tween-40, 20 μM DTPA (diethylenetriamine […] acid), 50 mM Tris-HCl buffered saline (pH 7.8), 0.05% sodium azide) or the recombinant AS1051 (in which Cys81 was replaced with Ala, N. Fukuchiet al., WO 95/08573) at a final concentration of 20 μg/ml as the binding inhibition substance, further added with 25 μl of a solution of europium. […] Then, the amount of europium (Eu) was measured by using a DELFIA Research fluorophotometer (1230 ARCUS Fluorometer, produced by Wallac, measurement time: 1 second). […]

[15] = target: T1, human von Willebrand factor; experiment: Ratio of control count to count with inhibitor; Eu-labelled chimeric protein on immobilised vWF, botrocetin in liquid phase
Experimental: A TBS solution (50 μl) containing human von Willebrand factor (2.5 μg/ml) was added to each well of a 96-well plate, and the von Willebrand factor was immobilized as a solid phase overnight at 4° C. Each well was washed once with TBS (150 μl) and blocked with TBS containing 5% BSA for about 3 hours. Each well of the plate was washed twice with TBS (150 μl), and then added with 25 μl of an assay buffer (Assay Buffer, Wallac DELFIA 1244-106, produced by Wallac, composition was mentioned in Example 4 <2>) or a recombinant AS1051 (in which Cys81 was replaced with Ala) at a final concentration of 20 μg/ml, further added with the assay buffer (25 μl) containing the europium (Eu)-labeled chimeric protein prepared in Example 4 <2> (100 ng/ml) and botrocetin (500 ng/ml), and left stand at room temperature for 3 hours. Each well of the plate was washed 5 times with TBS ([…]) containing 0.05% Tween-20, then added with 100 μl of a fluorescence enhancement buffer (Enhancement solution, 1244-104, produced by Wallac, composition was mentioned in Example 4 <2>), and shaken for 1 minute. Then, the amount of europium (Eu) was measured by using a 1420 ARVO multi-label counter (produced by Wallac, measurement time: 1 second). The measured values (with no addition of sample or addition of the inhibition sample) and CV value (deviation, %) are shown in Table 2.

human von Willebrand factor (from UniProt P04275 764-2813) (ligand)
Binding amount in the presence of inhibition substance (count) [1]: 1850 counts | Binding amount in the presence of inhibition substance (count) [2]: 3250 counts | Binding amount in the presence of inhibition substance (count) [3]: 3020 counts | Binding amount (count) [4]: 2820 counts | Binding amount (count) [5]: 46200 counts | Binding amount in the presence of inhibition substance (count) [6]: 3080 counts | Binding amount (count) [7]: 3010 counts | Average value of count with addition of AJvW-2 (10 µg/ml) [8]: 2340 counts | Binding amount (count) [9]: 13300 counts | Binding amount (count) [10]: 3660 counts | Binding amount in the presence of inhibition substance (count) [11]: 6880 counts | Average value of count in control [12]: 37300 counts

B1: GPIb-mIgGlFc chimeric protein (N-terminal region of human glycoprotein Ibα chain fused to the Fc region of mouse immunoglobulin γ1) (Fc fusion)
chain: HPICEVSKVASHLEVNCDKRNLTALPPDLPKDTTILHLSENLLYTFSLATLMPYTRLTQLNLDRCELTKLQVDGTLPVLGTLDLSHNQLQSLPLLGQTLPALTVLDVSFNRLTSLPLGALRGLGELQELYLKGNELKTLPPGLLTPTPKLEKLSLANNNLTELPAGLLNGLENLDTLLLQENSLYTIPKGFFGSHLLPFAFLHGNPWLCNCEILYFRRWLQDNAENVYVWKQGVDVKAMTSNVASVQCDNSDKFPVYKYPGKGCPTLGDEGDTDLYDYYPEEDTEGDKVRATRTVVKFPTKAHTTPWGLFYSWSTASLDVPRDCGCKPCICTVPEVSSVFIFPPKPKDVLTITLTPKVTCVVVDISKDDPEVQFSWFVDDVEVHTAQTQPREEQFNSTFRSVSELPIMHQDWLNGKEFKCRVNSAAFPAPIEKTISKTKGRPKAPQVYTIPPPKEQMAKDKVSLTCMITDFFPEDITVEWQWNGQPAENYKNTQPIMDTDGSYFVYSKLNVQKSNWEAGNTFTCSVLHEGLHNHHTEKSLSHSPGK
notes: Used as serum-free culture supernatant of transfected CHOdhfr- cells, diluted 8-fold, not purified; also called GPIb-mIgG1Fc; GPIbFcFH
binding result [13]: binds

B2: GPIb-mIgG2aFc chimeric protein (N-terminus side region of human glycoprotein Ib, amino acid numbers 1-319, fused to the Fc region of mouse immunoglobulin γ2a) (Fc fusion)
chain: HPICEVSKVASHLEVNCDKRNLTALPPDLPKDTTILHLSENLLYTFSLATLMPYTRLTQLNLDRCELTKLQVDGTLPVLGTLDLSHNQLQSLPLLGQTLPALTVLDVSFNRLTSLPLGALRGLGELQELYLKGNELKTLPPGLLTPTPKLEKLSLANNNLTELPAGLLNGLENLDTLLLQENSLYTIPKGFFGSHLLPFAFLHGNPWLCNCEILYFRRWLQDNAENVYVWKQGVDVKAMTSNVASVQCDNSDKFPVYKYPGKGCPTLGDEGDTDLYDYYPEEDTEGDKVRATRTVVKFPTKAHTTPWGLFYSWSTASLDEPRGPTIKPCPPCKCPAPNLLGGPSVFIFPPKIKDVLMISLSPIVTCVVVDVSEDDPDVQISWFVNNVEVHTAQTQTHREDYNSTLRVVSALPIQHQDWMSGKEFKCKVNNKDLPAPIERTISKPKGSVRAPQVYVLPPPEEEMTKKQVTLTCMVTDFMPEDIYVEWTNNGKTELNYKNTEPVLDSDGSYFMYSKLRVEKKNWVERNSYSCSVVHEGLHNHHTTKSFSRTPGK
notes: Purified on Protein A from CHOK1 culture supernatant; also called europium (Eu) labeled chimeric protein
S/N ratio [14]: 28.5 | S/N ratio [15]: 35
